Positions count from the first letter of the chain named. In names and notes the source's numbering stands.
B1: U2AF2 UHM E394K (domain or fragment)
chain: TEVLCLMNMVLPEELLDDEKYEEIVEDVRDECSKYGLVKSIEIPRPVDGVEVPGCGKIFVEFTSVFDCQKAMQGLTGRKFANRVVVTKYCDPDSYHRRDFW
B2: U2AF2 UHM E397K (domain or fragment)
chain: B1 chain with K20E, E23K
B3: U2AF2 UHM K453A (domain or fragment)
chain: B1 chain with K20E, K79A

Target: T1, SF3B1 ULM5 peptide (residues 333–351), wildtype (human, UniProt O75533-1 333-351)
T1 peptide: KRKSRWDETPASQMGGSTP
Experiment: ITC

Binder | fold reduction in binding affinity against wildtype U2AF2 UHM
B1 | ~20 fold
B2 | ~100 fold
B3 | 4 fold

Reference: paper PMC9364107 (The Journal of Biological Chemistry, 2022)
